Measured values as given in publication PMC7979726 (Nature Communications, 2021).

Target: T1, Mcm3 (S. cerevisiae, UniProt P24279 1-971)
T1 construct: Mcm3, S. cerevisiae; native protein without extra amino acids after SUMO cleavage; source: Champion pET SUMO Protein Expression System (Invitrogen); purified individually; protocols in Supplementary Data; not shown: SUMO, N-terminal, cleaved
Experiment: SEC; individually purified subunits mixed and the complex (Mcm5/3/7, Mcm2/6/4 or MCM-Cdt1) isolated by gel filtration
Conditions: both partners purified

T1 sequence (P24279 whole entry): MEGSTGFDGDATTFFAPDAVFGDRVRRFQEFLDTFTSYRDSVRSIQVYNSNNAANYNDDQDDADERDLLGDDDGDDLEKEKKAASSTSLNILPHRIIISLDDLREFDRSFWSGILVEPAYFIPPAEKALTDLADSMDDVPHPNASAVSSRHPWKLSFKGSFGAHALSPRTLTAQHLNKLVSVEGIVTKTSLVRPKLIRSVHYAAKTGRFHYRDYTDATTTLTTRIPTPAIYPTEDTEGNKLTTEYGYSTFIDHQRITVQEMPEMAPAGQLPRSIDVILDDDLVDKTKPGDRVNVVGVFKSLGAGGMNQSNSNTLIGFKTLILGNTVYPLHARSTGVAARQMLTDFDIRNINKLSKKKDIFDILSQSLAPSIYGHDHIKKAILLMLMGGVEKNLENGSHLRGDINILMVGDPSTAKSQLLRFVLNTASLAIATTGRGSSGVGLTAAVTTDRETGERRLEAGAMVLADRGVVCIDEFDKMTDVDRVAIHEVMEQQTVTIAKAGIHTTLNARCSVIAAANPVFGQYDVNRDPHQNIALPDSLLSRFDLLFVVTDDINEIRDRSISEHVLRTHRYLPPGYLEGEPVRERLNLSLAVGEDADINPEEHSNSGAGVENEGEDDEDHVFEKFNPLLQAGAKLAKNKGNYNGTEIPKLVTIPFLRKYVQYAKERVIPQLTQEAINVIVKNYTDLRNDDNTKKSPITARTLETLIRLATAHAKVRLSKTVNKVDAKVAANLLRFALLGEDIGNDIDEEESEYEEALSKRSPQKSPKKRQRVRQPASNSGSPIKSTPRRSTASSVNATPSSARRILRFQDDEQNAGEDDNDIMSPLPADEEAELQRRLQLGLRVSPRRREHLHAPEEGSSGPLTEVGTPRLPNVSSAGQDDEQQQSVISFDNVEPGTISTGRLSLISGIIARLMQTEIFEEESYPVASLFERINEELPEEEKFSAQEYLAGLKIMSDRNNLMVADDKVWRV

- binding result: binds
B1: Mcm7 (natural protein, S. cerevisiae, UniProt P38132 1-845, looked up)
chain: MSAALPSIQLPVDYNNLFNEITDFLVTFKQDTLSSDATRNENEDENLDAENIEQHLLEKGPKYMAMLQKVANRELNSVIIDLDDILQYQNEKFLQGTQADDLVSAIQQNANHFTELFCRAIDNNMPLPTKEIDYKDDVLDVILNQRRLRNERMLSDRTNEIRSENLMDTTMDPPSSMNDALREVVEDETELFPPNLTRRYFLYFKPLSQNCARRYRKKAISSKPLSVRQIKGDFLGQLITVRGIITRVSDVKPAVEVIAYTCDQCGYEVFQEVNSRTFTPLSECTSEECSQNQTKGQLFMSTRASKFSAFQECKIQELSQQVPVGHIPRSLNIHVNGTLVRSLSPGDIVDVTGIFLPAPYTGFKALKAGLLTETYLEAQFVRQHKKKFASFSLTSDVEERVMELITSGDVYNRLAKSIAPEIYGNLDVKKALLLLLVGGVDKRVGDGMKIRGDINVCLMGDPGVAKSQLLKAICKISPRGVYTTGKGSSGVGLTAAVMKDPVTDEMILEGGALVLADNGICCIDEFDKMDESDRTAIHEVMEQQTISISKAGINTTLNARTSILAAANPLYGRYNPRLSPLDNINLPAALLSRFDILFLMLDIPSRDDDEKLAEHVTYVHMHNKQPDLDFTPVEPSKMREYIAYAKTKRPVMSEAVNDYVVQAYIRLRQDSKREMDSKFSFGQATPRTLLGIIRLSQALAKLRLADMVDIDDVEEALRLVRVSKESLYQETNKSKEDESPTTKIFTIIKKMLQETGKNTLSYENIVKTVRLRGFTMLQLSNCIQEYSYLNVWHLINEGNTLKFVDDGTMDTDQEDSLVSTPKLAPQTTASANVSAQDSDIDLQDA
notes: Mcm7, S. cerevisiae; native protein without extra amino acids after SUMO cleavage; source: Champion pET SUMO Protein Expression System (Invitrogen); purified individually; protocols in Supplementary Data; not shown: SUMO, N-terminal, cleaved
